According to the supplement of paper PMC7877785:
± gives the uncertainty stated by the source.

Experiment: self-splicing fitness, log relative to wild type (ln ratio); higher = more splicing; Tetrahymena group I intron in knt gene, E. coli kanamycin selection, DiMSum; sequences stand for … in CUCUCU…GGAGGGAAAAGUUAUCAGGCAUGCACCUGGUAGCUAGUCUUUAAACCAAUAGAUUGCAUCGGUUUAAAAGGCAAGACCGUCAAAUUGCGGGAAAGGGGUCAACAGCCGUUCAGUACCAAGUCUCAGGGGAAACUUUGAGAUGGCCUUGCAAAGGGUAUGGUAAUAAGCUGACGGACAUGGUCCUAACCACGCAGCCAAGUCCUAAGUCAACAGAUCUUCUGUUGAUAUGGAUGCAGUUCACAGACUAAAUGUCGGUCGGGGAAGAUGUAUUCUUCUCAUAAGAUAUAGUCGGACCUCUCCUUAAUGGGAGCUAGCGGAUGAAGUGAUGCAACACUGGAGCCGCUGGGAACUAAUUUGUAUGCGAAAGUAUAUUGAUUAGUUUUGGAGUACUCGUGGUCG
Method in brief: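 A randomised library covering all eight P1ex-region intron nucleotides was built with the intron in the knt kanamycin-resistance gene on pET-22b(+) and held in E. coli BL21(DE3). Cells were grown overnight at 37°C or 30°C on LB agar, with or without 25 μg/mL kanamycin, plus 100 μg/mL carbenicillin, 50 μM IPTG and 0.2% rhamnose, and pooled colonies were amplicon-sequenced on an Illumina HiSeq 2500. DiMSum fitness is the error-weighted combination of wild-type-normalised replicate fold changes, kanamycin versus none.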

Sequence | self-splicing fitness (ln) (30 °C) | self-splicing fitness (ln) (37 °C)
GCGCAGCAAUAUUACGUCCC | -1.14 ± 0.3 | 0.234 ± 0.2
UCAUAGCAAUAUUACGCGAA | -2.95 ± 0.23 | -1.51 ± 0.15
UGUCAGCAAUAUUACGAAGG | -1.69 ± 0.1 | -0.409 ± 0.14
AUUUAGCAAUAUUACGGGGC | -3.54 ± 0.41 | 
UAGCAGCAAUAUUACGCACA | -0.126 ± 0.072 | 0.0233 ± 0.11
CACGAGCAAUAUUACGGAGU | -4.82 ± 0.32 | -3.69 ± 0.24
AGGUAGCAAUAUUACGAAUU | -1.85 ± 0.017 | -0.996 ± 0.035
AUCCAGCAAUAUUACGUGCC | -3.16 ± 0.21 | -1.09 ± 0.16
GCUCAGCAAUAUUACGUCCA | -1.28 ± 0.11 | -0.711 ± 0.13
CCAAAGCAAUAUUACGGGGG | -3.14 ± 0.18 | -1.5 ± 0.16
CCCCAGCAAUAUUACGUAUC | -3.88 ± 0.21 | -3.84 ± 0.21
GCAAAGCAAUAUUACGUCGA | -1.83 ± 0.091 | -0.578 ± 0.094
CGCCAGCAAUAUUACGAUCU | -2.5 ± 0.26 | -2.42 ± 0.35
AGACAGCAAUAUUACGAGCC | -0.273 ± 0.14 | -0.798 ± 0.21
GUCAAGCAAUAUUACGAAUG | -4.11 ± 0.22 | -1.18 ± 0.1
GCGUAGCAAUAUUACGUAAU |  | -0.693 ± 0.32
CGGCAGCAAUAUUACGGACA | -0.835 ± 0.12 | 0.127 ± 0.11
AUAUAGCAAUAUUACGUCAA | -2.93 ± 0.25 | -2.06 ± 0.2
ACAUAGCAAUAUUACGAAUC | -3.23 ± 0.2 | -2.78 ± 0.28
CGUUAGCAAUAUUACGUGCU | -2.71 ± 0.2 | -1.64 ± 0.21
GCUCAGCAAUAUUACGCAUC | -0.653 ± 0.079 | -0.186 ± 0.087
CCCGAGCAAUAUUACGUAAU | -4.75 ± 0.45 | -2.63 ± 0.32
UAGUAGCAAUAUUACGCAGA | -2.43 ± 0.23 | -2.99 ± 0.18
AUCCAGCAAUAUUACGCUUA | -0.592 ± 0.064 | 0.389 ± 0.094
AGCUAGCAAUAUUACGCCCA | -1.5 ± 0.21 | -0.441 ± 0.35

Sequence | self-splicing fitness (ln) (30 °C) | self-splicing fitness (ln) (37 °C)
AUGGAGCAAUAUUACGGACU | -1.2 ± 0.18 | -0.626 ± 0.23
GGAAAGCAAUAUUACGAGCU | -0.199 ± 0.11 | 0.478 ± 0.12
UUGUAGCAAUAUUACGCCGA | -0.677 ± 0.23 | -0.628 ± 0.24
UAAUAGCAAUAUUACGUGGA | -2.97 ± 0.23 | -2.33 ± 0.24
ACUCAGCAAUAUUACGCACU | -0.199 ± 0.064 | 0.205 ± 0.079
GUGCAGCAAUAUUACGGGGU | -2.79 ± 0.22 | -2.19 ± 0.24
GGGAAGCAAUAUUACGUUCU | -3.66 ± 0.22 | -3.52 ± 0.25
GCCAAGCAAUAUUACGGUGU | -1.48 ± 0.049 | -0.507 ± 0.06
GUGUAGCAAUAUUACGUCCU | -0.899 ± 0.15 | -0.148 ± 0.19
UCUCAGCAAUAUUACGUCUC | -4.6 ± 0.31 | -3 ± 0.23
CAUCAGCAAUAUUACGAAUU | -1.2 ± 0.11 | -1.55 ± 0.14
UACCAGCAAUAUUACGCCGA | -1.45 ± 0.16 | -0.513 ± 0.17
CUCGAGCAAUAUUACGUCCU | -2.54 ± 0.24 | -2.55 ± 0.48
GCUAAGCAAUAUUACGUGCC | -3.59 ± 0.24 | -2.35 ± 0.23
GGAGAGCAAUAUUACGACGA | -2.34 ± 0.21 | -2.08 ± 0.3
GCGCAGCAAUAUUACGAGAA | -2.67 ± 0.21 | -0.894 ± 0.21
AUUCAGCAAUAUUACGACAC | -1.45 ± 0.14 | 0.224 ± 0.17
AAAAAGCAAUAUUACGGUCA | -0.0389 ± 0.065 | 0.206 ± 0.082
AAGGAGCAAUAUUACGCUUG | -1.86 ± 0.1 | -0.799 ± 0.13
UGAAAGCAAUAUUACGCCAC |  | -2.67 ± 0.48
AUGCAGCAAUAUUACGUCGU | -0.894 ± 0.11 | -1.66 ± 0.13
AACUAGCAAUAUUACGUCAU | -2.91 ± 0.13 | -1.21 ± 0.12
CAAAAGCAAUAUUACGCCAU | -3.4 ± 0.2 | -2.61 ± 0.23
AUAGAGCAAUAUUACGACGC | -0.187 ± 0.14 | -0.765 ± 0.17
GGGCAGCAAUAUUACGAAAG | -3.58 ± 0.28 | -2.92 ± 0.35

Sequence | self-splicing fitness (ln) (30 °C) | self-splicing fitness (ln) (37 °C)
UCAUAGCAAUAUUACGUGCC | -3.48 ± 0.41 | -1.34 ± 0.23
UAAAAGCAAUAUUACGACUG | 0.248 ± 0.1 | -0.671 ± 0.12
CCAUAGCAAUAUUACGUGCA | -2.77 ± 0.19 | -3.02 ± 0.24
AUUCAGCAAUAUUACGGCAA | -0.94 ± 0.083 | 0.292 ± 0.1
AAUCAGCAAUAUUACGCCUU | 0.109 ± 0.082 | 0.0213 ± 0.1
UGGAAGCAAUAUUACGUAUU | -3.06 ± 0.23 | -3.09 ± 0.33
GGGUAGCAAUAUUACGUUAU | -3.17 ± 0.25 | -1.33 ± 0.15
AAUUAGCAAUAUUACGGCGU | -0.085 ± 0.076 | 0.168 ± 0.1
UGAUAGCAAUAUUACGGCUA | -0.455 ± 0.14 | 0.0243 ± 0.14
ACCUAGCAAUAUUACGGCGA | -1.49 ± 0.12 | -0.462 ± 0.11
CUAUAGCAAUAUUACGAUCU | -3.99 ± 0.39 | -1.91 ± 0.33
AUACAGCAAUAUUACGGUUC | -2.89 ± 0.12 | -1.2 ± 0.12
UAUAAGCAAUAUUACGCAAG | -1.86 ± 0.23 | 0.725 ± 0.17
GCUAAGCAAUAUUACGUGAG | -0.321 ± 0.06 | -0.28 ± 0.071
CUCCAGCAAUAUUACGCUUC | -3.31 ± 0.24 | -2.27 ± 0.23
AGAUAGCAAUAUUACGCAAG | -2.2 ± 0.15 | -0.0746 ± 0.16
UGAUAGCAAUAUUACGCUGG | -1.15 ± 0.11 | -0.645 ± 0.12
UCAUAGCAAUAUUACGCGGU | -3.43 ± 0.25 | -2.2 ± 0.25
UUAGAGCAAUAUUACGACCU | -3.64 ± 0.41 | -1.49 ± 0.43
ACGAAGCAAUAUUACGCGAC | -3.14 ± 0.2 | -1.78 ± 0.19
CGUGAGCAAUAUUACGCUGU | -3.2 ± 0.26 | -2.43 ± 0.26
CACGAGCAAUAUUACGUACU | -2.77 ± 0.16 | -2.54 ± 0.27
CAACAGCAAUAUUACGAUCU | -2.02 ± 0.13 | -0.986 ± 0.12
UCGGAGCAAUAUUACGGAUU | -2.73 ± 0.27 | -2.85 ± 0.38
CCCAAGCAAUAUUACGAAUC | -2.81 ± 0.24 | -2.36 ± 0.27
